Results as given in US20200317768A1 (published 2020).
Changes are numbered by the printed parent chain.

T1: cynomolgus monkey FcγRIIIaS extracellular domain with C-terminal His-tag (cynomolgus monkey, UniProt Q8SPW2 21-206 at identity 1.00))
T1 construct: also called cyno FcgRIIIaS; cynoFcγRIIIaS
T1 chain: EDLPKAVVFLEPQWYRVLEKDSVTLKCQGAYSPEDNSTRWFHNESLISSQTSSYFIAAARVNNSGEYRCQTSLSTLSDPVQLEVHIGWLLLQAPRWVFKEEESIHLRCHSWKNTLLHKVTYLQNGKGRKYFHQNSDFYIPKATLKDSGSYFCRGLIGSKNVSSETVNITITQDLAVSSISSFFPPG

T2: human FcγRIIb extracellular domain with C-terminal His-tag (human, UniProt P31994 43-217)
T2 construct: also called human FcgRIIb
T2 sequence: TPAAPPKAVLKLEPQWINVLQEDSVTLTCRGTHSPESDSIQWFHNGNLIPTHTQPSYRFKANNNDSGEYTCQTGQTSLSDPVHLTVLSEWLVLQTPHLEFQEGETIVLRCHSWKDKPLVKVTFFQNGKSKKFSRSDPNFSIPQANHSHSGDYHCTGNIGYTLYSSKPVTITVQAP

T3: cynomolgus monkey FcγRIIb extracellular domain with C-terminal His-tag (cynomolgus monkey)
T3 construct: also called cyno FcgRIIb; cynoFcγRIIb
T3 chain: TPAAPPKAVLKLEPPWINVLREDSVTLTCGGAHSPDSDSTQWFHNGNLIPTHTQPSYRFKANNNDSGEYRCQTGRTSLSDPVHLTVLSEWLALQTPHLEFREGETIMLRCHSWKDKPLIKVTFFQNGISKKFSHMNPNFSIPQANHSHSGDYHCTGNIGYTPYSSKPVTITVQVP

T4: human FcγRIIaH extracellular domain with C-terminal His-tag (human, UniProt P12318 34-217)
T4 construct: also called human FcgRIIaH; FcγRIIa (type H)
T4 sequence: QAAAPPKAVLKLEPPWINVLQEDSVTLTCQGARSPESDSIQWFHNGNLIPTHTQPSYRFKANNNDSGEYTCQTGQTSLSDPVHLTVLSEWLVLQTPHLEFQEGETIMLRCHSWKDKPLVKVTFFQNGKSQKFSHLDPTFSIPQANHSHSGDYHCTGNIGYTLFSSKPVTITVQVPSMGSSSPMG

T5: cynomolgus monkey FcγRIIa2 extracellular domain with C-terminal His-tag (cynomolgus monkey)
T5 construct: also called cyno FcgRIIa2; cynoFcγRIIa2
T5 chain: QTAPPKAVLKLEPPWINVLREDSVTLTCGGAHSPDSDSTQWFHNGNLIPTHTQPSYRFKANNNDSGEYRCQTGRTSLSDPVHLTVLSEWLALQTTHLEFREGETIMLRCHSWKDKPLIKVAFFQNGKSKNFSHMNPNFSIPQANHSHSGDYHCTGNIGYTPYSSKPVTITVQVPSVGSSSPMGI

T6: cynomolgus monkey FcγRIIa1 extracellular domain with C-terminal His-tag (cynomolgus monkey)
T6 construct: also called cyno FcgRIIa1; cynoFcγRIIa1
T6 chain: T5 chain with T95P, A121T, K127I, S128A, N130K, N135D, Q142R

T7: cynomolgus monkey FcγRIIa3 extracellular domain with C-terminal His-tag (cynomolgus monkey)
T7 construct: also called cyno FcgRIIa3; cynoFcγRIIa3
T7 chain: T5 chain with K127I, N130K, H133P, Q142R

B1: M103205H795-MY380/M103202L889-SK1 (antibody, human IgG1, kappa)
heavy: QVTLKESGPVLVKPTETLTLTCTVSGIDLSHDDISWVRQAPGKGLEWVGIISYAGSTYYASWAKGRLTISKDTSKNQVVLTMTNMDPVDTATYYCARGVPAYSHGGDLWGQGTLVTVSSASTKGPSVFPLAPSSKSTSGGTAALGCLVKDYFPEPVTVSWNSGALTSGVHTFPAVLQSSGLYSLSSVVTVPSSSLGTQTYICNVNHKPSNTKVDKKVEPKSCDKTHTCPPCPAPELLNGPSVFLFPPKPKDTLMISRTPEVTCVVVDVSEEDPEVKFNWYVDGVEVHNAKTKPREEQYNSTYRVVSVLTVLHQDWLNGKEYKCKVSNKALPKPIEKTISKAKGQPREPQVYTLPPSREEMTKNQVSLTCLVKGFYPSDIAVEWESNGQPENNYKTTPKVLDSDGSFFLYSKLTVDKSRWQQGNVFSCSVMHEALHNHYTQKSLSLSP
light: DIVMTQSPATLSLSPGERATLSCTSSQSVYHANWLSWFQQKPGQPPKLLIYWASTLAYGVPSRFSGSGSGTDFTLTISSLQPEDAATYYCAGGYGGGRYAFGQGTKVEIKRTVAAPSVFIFPPSDEQLKSGTASVVCLLNNFYPREAKVQWKVDNALQSGNSQESVTEQDSKDSTYSLSSTLTLSKADYEKHKVYACEVTHQGLSSPVTKSFNRGEC
notes: Substitutions introduced into M103205H795-SG1, expressed with M103202L889-SK1 as light chain; EU numbering
B2: M103205H795-MY387/M103202L889-SK1 (antibody, human IgG1, kappa)
heavy: B1 heavy with N238T, S241V, E270D, K398P
light: B1 light
notes: as for B1
B3: M103205H795-MY515/M103202L889-SK1 (antibody, human IgG1, kappa)
heavy: B1 heavy with N238T, E270D, Q297L, S300L, K398P
light: B1 light
notes: as for B1
B4: M103205H795-MY386/M103202L889-SK1 (antibody, human IgG1, kappa)
heavy: B1 heavy with N238L, E270D, Q297L, K328T, K398P
light: B1 light
notes: as for B1
B5: M103205H795-MY392/M103202L889-SK1 (antibody, human IgG1, kappa)
heavy: B1 heavy with N238T, E270D, S300L, K398P
light: B1 light
notes: as for B1
B6: M103205H795-MY516/M103202L889-SK1 (antibody, human IgG1, kappa)
heavy: B1 heavy with N238T, S241V, E270D, Q297L, S300L, K398P
light: B1 light
notes: as for B1
B7: M103205H795-MY520/M103202L889-SK1 (antibody, human IgG1, kappa)
heavy: B1 heavy with P234D, N238T, S241V, E270D, Q297L, K398P
light: B1 light
notes: as for B1
B8: M103205H795-MY388/M103202L889-SK1 (antibody, human IgG1, kappa)
heavy: B1 heavy with N238T, S241I, E270D, K398P
light: B1 light
notes: as for B1
B9: M103205H795-MY514/M103202L889-SK1 (antibody, human IgG1, kappa)
heavy: B1 heavy with N238T, S241V, E270D, S300L, K398P
light: B1 light
notes: as for B1
B10: M103205H795-MY400/M103202L889-SK1 (antibody, human IgG1, kappa)
heavy: B1 heavy with N238T, E270D, P333E, K398P
light: B1 light
notes: as for B1
B11: M103205H795-MY389/M103202L889-SK1 (antibody, human IgG1, kappa)
heavy: B1 heavy with N238T, S241L, E270D, K398P
light: B1 light
notes: as for B1

Target: T8, human FcγRIIIaV extracellular domain with C-terminal His-tag (human, UniProt P08637 17-208)
T8 construct: also called human FcgRIIIaV
Experiment: SPR (BIACORE); KD of SG1 / KD of variant;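 further: relative to parent M103205H795-SG1 carrying the SG1 human heavy chain constant region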

T8 sequence (P08637 17-208 F176V): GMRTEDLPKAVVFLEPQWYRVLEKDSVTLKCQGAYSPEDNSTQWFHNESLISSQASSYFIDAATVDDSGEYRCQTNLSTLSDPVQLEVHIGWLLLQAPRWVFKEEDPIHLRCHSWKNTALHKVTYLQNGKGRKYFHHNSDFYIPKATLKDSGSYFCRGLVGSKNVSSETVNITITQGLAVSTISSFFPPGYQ

Binder | KD fold (SG1 = 1) [fold]
B1 | 0.08
B2 | 0.17
B3 | 0.09
B4 | 0.03
B5 | 0.09
B6 | 0.12
B7 | 0.29
B8 | 0.19
B9 | 0.08
B10 | 0.1
B11 | 0.23

Target: T1, cynomolgus monkey FcγRIIIaS …
Experiment: SPR (BIACORE); KD of SG1 / KD of variant;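 further: relative to parent M103205H795-SG1 carrying the SG1 human heavy chain constant region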

Binder | KD fold (SG1 = 1) [fold]
B1 | 0.13
B2 | 0.14
B3 | 0.09
B4 | 0.14
B5 | 0.09
B6 | 0.12
B7 | 0.18
B8 | 0.23
B9 | 0.08
B10 | 0.15
B11 | 0.24

Target: T2, human FcγRIIb extracellular domain with …
Experiment: SPR (BIACORE); KD of SG1 / KD of variant;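 further: relative to parent M103205H795-SG1 carrying the SG1 human heavy chain constant region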

Binder | KD fold (SG1 = 1) [fold]
B1 | 9.6
B2 | 2.5
B3 | 3.8
B4 | 1
B5 | 2.7
B6 | 9
B7 | 3.5
B8 | 3.1
B9 | 6.7
B10 | 1.8
B11 | 4.2

Target: T3, cynomolgus monkey FcγRIIb extracellular …
Experiment: SPR (BIACORE); KD of SG1 / KD of variant;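 further: relative to parent M103205H795-SG1 carrying the SG1 human heavy chain constant region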

Binder | KD fold (SG1 = 1) [fold]
B1 | 6.2
B2 | 2.2
B3 | 4.6
B4 | 1.1
B5 | 2.6
B6 | 4
B7 | 1.5
B8 | 2.4
B9 | 2.4
B10 | 2.9
B11 | 2.6

Target: T4, human FcγRIIaH extracellular domain …
Experiment: SPR (BIACORE); KD of SG1 / KD of variant

Binder | KD fold (SG1 = 1) [fold]
B1 | 1.5
B2 | 2.5
B3 | 3.1
B4 | 0.9
B5 | 1.6
B6 | 3.1
B7 | 1.4
B8 | 2.1
B9 | 2
B10 | 1.6
B11 | 2.6

Target: T5, cynomolgus monkey FcγRIIa2 …
Experiment: SPR (BIACORE); KD of SG1 / KD of variant

Binder | KD fold (SG1 = 1) [fold]
B1 | 5.1
B2 | 2.7
B3 | 3.2
B4 | 0.9
B5 | 2.2
B6 | 3.9
B7 | 2.2
B8 | 3
B9 | 3.2
B10 | 2.3
B11 | 3.2

Target: T6, cynomolgus monkey FcγRIIa1 …
Experiment: SPR (BIACORE); KD of SG1 / KD of variant

Binder | KD fold (SG1 = 1) [fold]
B1 | 3.4
B2 | 1.4
B3 | 22.9
B4 | 0.6
B5 | 10.7
B6 | 21.3
B7 | 1.3
B8 | 1.5
B9 | 12.3
B10 | 1.8
B11 | 1.6

Target: T7, cynomolgus monkey FcγRIIa3 …
Experiment: SPR (BIACORE); KD of SG1 / KD of variant

Binder | KD fold (SG1 = 1) [fold]
B1 | 3.2
B2 | 12.1
B3 | 5.9
B4 | 1.1
B5 | 4.4
B6 | 21.5
B7 | 8.3
B8 | 13.1
B9 | 11.3
B10 | 4.5
B11 | 12.1
